For test [1], the target named is X. citri VirD4 all-alpha domain (VirD4AAD) (Xanthomonas citri). Nature of the test: ITC.
For test [2] the target is unchanged. Nature of the test: SEC-MALS.

pKd: −log10 of the molar value.

In the case of “XAC2609_(XVIPCD) H315A/P316A/D317A (from UniProt A0AAI7ZGC7 311-431) (domain or fragment)”, in test [1], the pKd was 5.92.

“full-length X-Tfe^XAC2609 (from UniProt A0AAI7ZGC7 1-431) (natural protein)” gave a pKd in test [1] of 6.40. Turning to “X-Tfe^XAC2609 XVIPCD (XAC2609_(XVIPCD), residues 311–431) (from UniProt A0AAI7ZGC7 311-431) (domain or fragment)”, in test [2], the stoichiometry N was determined as 1. In test [1], “XAC2609_(XVIPCD) D363A (from UniProt A0AAI7ZGC7 311-431) (domain or fragment)” had a negative logarithm of the Kd (pKd) of 4.54. “XAC2609_(XVIPCD)Δ20 (residues 311–411) (from UniProt A0AAI7ZGC7 311-411) (domain or fragment)” showed a stoichiometry N in test [2] of 1.

On to “XAC2609_(XVIPCD) D383A/P384A (from UniProt A0AAI7ZGC7 311-431) (domain or fragment)”, for which the negative-log Kd (pKd) in test [1] is 4.55.

For the origin of these results see paper PMC8740702.
